In patent US20180238915A1 (published 2018):
Read-outs that look alike come from different tables or passages of the source. Each block holds one binder with its values, some of them ahead of it.

Tests used:
[1] = target: T1, negatively modulated GCSF receptor (GCSFR(-)) (UniProt Q99062 25-621, modified by S-HyNic and conjugated through HyNic-4FB bonds to a 64-base DNA oligonucleotide (SEQ. ID 2, 5' C12 amino modifier); number and sites not stated)
T1 chain: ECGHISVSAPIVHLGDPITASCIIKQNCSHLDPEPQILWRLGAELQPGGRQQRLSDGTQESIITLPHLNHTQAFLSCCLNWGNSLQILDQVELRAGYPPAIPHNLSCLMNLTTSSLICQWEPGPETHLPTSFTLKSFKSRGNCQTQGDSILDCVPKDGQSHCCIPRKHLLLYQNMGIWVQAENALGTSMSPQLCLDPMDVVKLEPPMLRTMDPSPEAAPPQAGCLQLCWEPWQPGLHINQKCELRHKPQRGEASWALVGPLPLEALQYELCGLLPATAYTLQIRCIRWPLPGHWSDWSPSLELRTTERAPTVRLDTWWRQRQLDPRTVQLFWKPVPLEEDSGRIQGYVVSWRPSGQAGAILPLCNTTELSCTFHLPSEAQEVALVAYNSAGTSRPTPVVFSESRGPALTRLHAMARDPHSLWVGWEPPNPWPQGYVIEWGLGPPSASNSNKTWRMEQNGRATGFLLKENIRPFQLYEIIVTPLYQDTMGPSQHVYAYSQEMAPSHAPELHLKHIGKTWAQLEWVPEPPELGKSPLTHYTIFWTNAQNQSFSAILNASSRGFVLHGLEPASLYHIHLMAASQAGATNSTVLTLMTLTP

receptor [2] = target: receptor
receptor [3] = test: BLI

koff [1]: 5e-05 s⁻¹
B1: labeled G-CSF (Alexa Fluor 488) (ligand)
chain: TPLGPASSLPQSFLLKCLEQVRKIQGDGAALQEKLCATYKLCHPEELVLLGHSLGIPWAPLSSCPSQALQLAGCLSQLHSGLFLYQGLLQALEGISPELGPTLDTLQLDVADFATTIWQQMEELGMAPALQPTQGAMPAFASAFQRRAGGVLVASHLQSFLEVSYRVLRHLAQP
modifications: Alexa Fluor 488 label (carboxylic acid succinimidyl ester); sites not stated

koff (receptor [2]): 3.8e-05 s⁻¹
koff (receptor [3]): < 1e-06 s⁻¹
B2: G-CSF (ligand)
chain: B1 chain
